Test results published in patent publication US20190336574A1 (TRUSTEES OF PRINCETON UNIVERSITY, published 2019).
Where no end group is shown, it is not given here. CFP = cyan fluorescent protein

T1: HA-SND1, full-length human, wild type (human, UniProt Q7KZF4 1-910)
T1 construct: Full-length, HA-tagged; Expressed in HEK293T cells, tested in lysate; also called HA-tagged SND1; WT HA-SND1
T1 sequence: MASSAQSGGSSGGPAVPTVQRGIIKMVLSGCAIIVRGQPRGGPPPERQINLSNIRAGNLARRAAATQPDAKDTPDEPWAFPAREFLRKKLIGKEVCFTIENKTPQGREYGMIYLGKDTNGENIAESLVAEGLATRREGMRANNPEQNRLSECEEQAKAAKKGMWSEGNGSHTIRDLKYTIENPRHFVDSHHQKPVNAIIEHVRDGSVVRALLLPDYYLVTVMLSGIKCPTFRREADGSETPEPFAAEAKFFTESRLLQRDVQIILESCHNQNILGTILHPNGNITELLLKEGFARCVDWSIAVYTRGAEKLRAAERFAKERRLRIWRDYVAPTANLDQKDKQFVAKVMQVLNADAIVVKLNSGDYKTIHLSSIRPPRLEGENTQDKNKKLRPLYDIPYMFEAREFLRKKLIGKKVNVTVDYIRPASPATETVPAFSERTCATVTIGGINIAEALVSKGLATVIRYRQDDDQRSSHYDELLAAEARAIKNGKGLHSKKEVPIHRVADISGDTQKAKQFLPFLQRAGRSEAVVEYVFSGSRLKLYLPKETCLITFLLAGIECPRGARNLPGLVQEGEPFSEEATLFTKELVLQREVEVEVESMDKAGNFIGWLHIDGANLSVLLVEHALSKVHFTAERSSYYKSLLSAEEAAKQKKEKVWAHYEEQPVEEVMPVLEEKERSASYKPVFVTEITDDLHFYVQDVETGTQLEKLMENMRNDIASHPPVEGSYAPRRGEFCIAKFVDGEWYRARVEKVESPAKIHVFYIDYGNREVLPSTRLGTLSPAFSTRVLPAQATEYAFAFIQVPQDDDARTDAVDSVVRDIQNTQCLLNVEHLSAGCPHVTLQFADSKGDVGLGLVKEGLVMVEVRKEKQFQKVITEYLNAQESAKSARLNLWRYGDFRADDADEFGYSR

B1: CFP-MTDH fusion protein (peptide, not shown: large carriers)
chain: {CFP}-SSADPNSDWNAPAEEWGNWVDE
modifications: also: fused to CFP, whose letters are not given here
B2: Myc-MTDH E399R, full-length human (other)
chain: MAARSWQDELAQQAEEGSARLREMLSVGLGFLRTELGLDLGLEPKRYPGWVILVGTGALGLLLLFLLGYGWAAACAGSRKKRRSPPRKREEAAAVPAAAPDDLALLKNLRSEEQKKKNRKKLSEKPKPNGRTVEVAEGEAVRTPQSVTAKQPPEIDKKNEKSKKNKKKSKSDAKAVQNSSRHDGKEVDEGAWETKISHREKRQQRKRDKVLTDSGSLDSTIPGIENTITVTTEQLTTASFPVGSKKNKGDSHLNVQVSNFKSGKGDSTLQVSSGLNENLTVNGGGWNEKSVKLSSQISAGEEKWNSVSPASAGKRKAEPSAWSQDTGDANTNGKDWGRSWSDRSIFSGIGSTAEPVSQSTTSDYQWDVSRNQPYIDDEWSGLNGLSSADPNSDWNAPAREWGNWVDEERASLLKSQEPIPDDQKVSDDDKEKGEGALPTGKSKKKKKKKKKQGEDNSTAQDTEELEKEIREDLPVNTSKTRPKQEKAFSLKTISTSDPAEVLVKNSQPIKTLPPATSTEPSVILSKSDSDKSSSQVPPILQETDKSKSNTKQNSVPPSQTKSETSWESPKQIKKKKKARRET
notes: Full-length, Myc-tagged; also called SPM21
B3: Myc-MTDH E400R, full-length human (other)
chain: MAARSWQDELAQQAEEGSARLREMLSVGLGFLRTELGLDLGLEPKRYPGWVILVGTGALGLLLLFLLGYGWAAACAGSRKKRRSPPRKREEAAAVPAAAPDDLALLKNLRSEEQKKKNRKKLSEKPKPNGRTVEVAEGEAVRTPQSVTAKQPPEIDKKNEKSKKNKKKSKSDAKAVQNSSRHDGKEVDEGAWETKISHREKRQQRKRDKVLTDSGSLDSTIPGIENTITVTTEQLTTASFPVGSKKNKGDSHLNVQVSNFKSGKGDSTLQVSSGLNENLTVNGGGWNEKSVKLSSQISAGEEKWNSVSPASAGKRKAEPSAWSQDTGDANTNGKDWGRSWSDRSIFSGIGSTAEPVSQSTTSDYQWDVSRNQPYIDDEWSGLNGLSSADPNSDWNAPAERWGNWVDEERASLLKSQEPIPDDQKVSDDDKEKGEGALPTGKSKKKKKKKKKQGEDNSTAQDTEELEKEIREDLPVNTSKTRPKQEKAFSLKTISTSDPAEVLVKNSQPIKTLPPATSTEPSVILSKSDSDKSSSQVPPILQETDKSKSNTKQNSVPPSQTKSETSWESPKQIKKKKKARRET
notes: Full-length, Myc-tagged; also called SPM22
B4: Myc-MTDH TPM1 (D389R, D393R, W394D), full-length human (other)
chain: MAARSWQDELAQQAEEGSARLREMLSVGLGFLRTELGLDLGLEPKRYPGWVILVGTGALGLLLLFLLGYGWAAACAGSRKKRRSPPRKREEAAAVPAAAPDDLALLKNLRSEEQKKKNRKKLSEKPKPNGRTVEVAEGEAVRTPQSVTAKQPPEIDKKNEKSKKNKKKSKSDAKAVQNSSRHDGKEVDEGAWETKISHREKRQQRKRDKVLTDSGSLDSTIPGIENTITVTTEQLTTASFPVGSKKNKGDSHLNVQVSNFKSGKGDSTLQVSSGLNENLTVNGGGWNEKSVKLSSQISAGEEKWNSVSPASAGKRKAEPSAWSQDTGDANTNGKDWGRSWSDRSIFSGIGSTAEPVSQSTTSDYQWDVSRNQPYIDDEWSGLNGLSSARPNSRDNAPAEEWGNWVDEERASLLKSQEPIPDDQKVSDDDKEKGEGALPTGKSKKKKKKKKKQGEDNSTAQDTEELEKEIREDLPVNTSKTRPKQEKAFSLKTISTSDPAEVLVKNSQPIKTLPPATSTEPSVILSKSDSDKSSSQVPPILQETDKSKSNTKQNSVPPSQTKSETSWESPKQIKKKKKARRET
notes: Full-length, Myc-tagged; also called TPM1 MTDH
B5: Myc-MTDH TPM2 (E399R, E400R, W401D), full-length human (other)
chain: MAARSWQDELAQQAEEGSARLREMLSVGLGFLRTELGLDLGLEPKRYPGWVILVGTGALGLLLLFLLGYGWAAACAGSRKKRRSPPRKREEAAAVPAAAPDDLALLKNLRSEEQKKKNRKKLSEKPKPNGRTVEVAEGEAVRTPQSVTAKQPPEIDKKNEKSKKNKKKSKSDAKAVQNSSRHDGKEVDEGAWETKISHREKRQQRKRDKVLTDSGSLDSTIPGIENTITVTTEQLTTASFPVGSKKNKGDSHLNVQVSNFKSGKGDSTLQVSSGLNENLTVNGGGWNEKSVKLSSQISAGEEKWNSVSPASAGKRKAEPSAWSQDTGDANTNGKDWGRSWSDRSIFSGIGSTAEPVSQSTTSDYQWDVSRNQPYIDDEWSGLNGLSSADPNSDWNAPARRDGNWVDEERASLLKSQEPIPDDQKVSDDDKEKGEGALPTGKSKKKKKKKKKQGEDNSTAQDTEELEKEIREDLPVNTSKTRPKQEKAFSLKTISTSDPAEVLVKNSQPIKTLPPATSTEPSVILSKSDSDKSSSQVPPILQETDKSKSNTKQNSVPPSQTKSETSWESPKQIKKKKKARRET
notes: Full-length, Myc-tagged; also called TPM2 MTDH

Experiments:
[1] = target: His-SND1 (16-339), SN1/2 domains, wild type (human) (UniProt Q7KZF4); test: GST titration pull-down: GST-MTDH (386-407) on glutathione resin, SND1 (SN1/2) at 10, 3, 1, 0.5, 0.25, 0.12 (the sheet prints mM, paragraph 254 says µM), SDS-PAGE, Coomassie blue
[2] = target: TC-FLASH-SND1 (tetracysteine peptide fused to SND1 (16-339), labelled with FlAsH) (human) (UniProt Q7KZF4); test: FRET, 0.2 µM CFP-MTDH titrated with TC-FLASH-SND1 (0.25-8 µM)
[3] = target: T1, HA-SND1, full-length human, wild type; test: anti-HA co-IP (as printed on the sheet) from HEK293T lysate, western blot
Source text: The proteins bound to GS4B were examined on SDS-PAGE and visualized by Coomassie blue staining. […] The bound proteins were examined as in (FIG. 22A). For both (FIG. 22A) and (FIG. 22B), experiments were repeated three times; representative results are shown. The normalized percentage of binding was averaged from three experiments; mean±SEM was shown below the data. (FIG. 22C) HEK293T cells were transfected with human HA-SND1, WT Myc-MTDH or Myc-MTDH with indicated single point mutation. […] (FIG. 22D) HEK293T cells were transfected with human Myc-MTDH, WT HA-SND1 or mutant HA-SND1 with indicated single point mutations or deletions. […]
Immunoprecipitation and western blot: For in vivo immunoprecipitation (IP) experiments, cultured cells were washed in cold PBS and lysed in lysis buffer (20 mM Tris pH 7.4, 0.15 M NaCl, 1 mM EDTA, 1 mM EGTA, 1% Tx-100, 0.0025 M Na2P2O7, 1 mM β-glycerolphosphate, 1 mM Na3VO4, and 1 mM NaF) with an EDTA-free protease inhibitor mixture (Roche Applied Science) and PMSF. Cell lysates were then incubated on ice for 10 min, centrifuged, and precleared by incubating with protein A/G beads (Santa Cruz Biotechnology) for 1 h at 4° C. For IP bead preparation, 30 μl of protein A/G beads were incubated with 5 μg of antibodies for 2 h at 4° C. […]

[4] = target: human AGO2 (ectopically expressed in HEK293T cells) (human, UniProt Q9UKV8 1-859); test: co-IP (anti-Myc) from HEK293T lysates, western blot
[5] = target: T1, HA-SND1, full-length human, wild type; test: as above

human AGO2 (ectopically expressed in HEK293T cells), sequence (Q9UKV8 whole entry): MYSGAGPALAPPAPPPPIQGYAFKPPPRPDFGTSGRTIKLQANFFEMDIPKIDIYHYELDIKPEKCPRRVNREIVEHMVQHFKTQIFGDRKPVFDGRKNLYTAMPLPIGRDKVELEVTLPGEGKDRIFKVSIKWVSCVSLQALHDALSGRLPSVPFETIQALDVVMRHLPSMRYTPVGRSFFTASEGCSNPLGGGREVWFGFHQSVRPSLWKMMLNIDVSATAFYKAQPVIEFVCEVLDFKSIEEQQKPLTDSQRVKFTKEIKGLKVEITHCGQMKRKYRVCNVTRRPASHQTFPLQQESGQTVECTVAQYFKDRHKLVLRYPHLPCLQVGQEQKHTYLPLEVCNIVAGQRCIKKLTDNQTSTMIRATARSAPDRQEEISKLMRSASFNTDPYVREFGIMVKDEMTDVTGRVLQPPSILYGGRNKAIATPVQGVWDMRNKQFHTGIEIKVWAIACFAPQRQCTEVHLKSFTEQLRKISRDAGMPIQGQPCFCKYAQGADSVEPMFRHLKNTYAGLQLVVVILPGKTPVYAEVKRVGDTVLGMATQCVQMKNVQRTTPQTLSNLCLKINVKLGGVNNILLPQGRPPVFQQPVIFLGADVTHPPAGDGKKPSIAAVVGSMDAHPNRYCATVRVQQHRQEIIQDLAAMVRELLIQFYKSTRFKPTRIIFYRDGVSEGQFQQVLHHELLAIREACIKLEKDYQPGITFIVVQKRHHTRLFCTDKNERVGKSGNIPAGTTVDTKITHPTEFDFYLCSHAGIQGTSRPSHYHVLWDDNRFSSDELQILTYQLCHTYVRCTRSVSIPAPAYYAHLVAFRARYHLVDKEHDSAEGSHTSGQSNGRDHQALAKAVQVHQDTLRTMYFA

Row | Molecule | binding result [3] | binding result [4] | binding result [5] | also measured
1 | PAE (397-399)→SQ |  |  |  | Estimated Binding Affinity [1]: 0.8 µM
2 | B1 |  |  |  | Kd [2]: 900 nM
3 | B2 | binds |  |  | 
4 | B3 | binds |  |  | 
5 | B4 |  | binds | no binding | 
6 | B5 |  | binds | no binding | 
